The results in this text go back to patent publication US20260248897.

Data set [1] relates to RBD of SARS-CoV-2 Omicron strain.
Data set [2] has as its system RBD of SARS-CoV-2 Omicron strain B.1.1.529, BA1, on infectious virus.
Data set [3] relates to RBD of SARS-CoV-2 Delta strain B.1.617.2, on infectious virus.
The test system of data set [4] is RBD of SARS-CoV-2 Delta strain.

With “gene recombinant of human PDI (protein disulfide isomerase)”, the “disulfide bond cleavage activity (remaining rate of native RBD; maleimide-PEG 2k, SDS-PAGE)” value was “PDI showed an activity to cleave disulfide bonds in both the RBD of the Delta strain and the RBD of the Omicron strain. The disulfide bond cleavage activity was particularly high in the RBD of the Omicron strain” in data set [1]; “PDI showed an activity to cleave disulfide bonds in both the RBD of the Delta strain and the RBD of the Omicron strain” in data set [4]. In addition, the “antiviral activity (viral genome amount in supernatant of infected airway organoids)” value in data set [2] was “PDI showed the high antiviral activity against both the Delta strain and the Omicron strain”; in data set [3], “PDI showed the high antiviral activity against both the Delta strain and the Omicron strain”.
